Results: patent US20200392227A1 (LYVGEN BIOPHARMA, published 2020)
Read-outs that look alike come from different tables or passages of the source. Blank lines part the entries; values can stand above or below the binder they belong to.

What was measured:
Assay in all cases: BLI
[1] = target: T1, human FcRIIIA-V158 protein (MednaBio, E1035) (human, UniProt P08637 17-208)
T1 construct: Bought; also called FcγRIIIA(V); FcgRIIIA(V)
Procedure, shortened: (§1)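 Binding was measured by biolayer interferometry on an Octet Red96 System. Commercial human Fc receptor proteins were loaded at 20 μg/mL onto anti-penta-HIS biosensors, which were then dipped into an 8-point 1:3 dilution series of test IgG starting at 300 nM in PBS with 0.1% BSA and 0.02% Tween-20, at pH 7.2 for Fcγ receptors and pH 6 for FcRn. Kd, kon and koff were obtained by global fitting, with data fitted to a 1:1 binding model.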

[2] = target: T2, human FcRIIB/C protein (MednaBio, E1034) (human, UniProt P31994 43-217, limits assumed)
T2 construct: Bought as FcRIIB/C; also called FcγRIIB; CD32B
T2 sequence (looked up): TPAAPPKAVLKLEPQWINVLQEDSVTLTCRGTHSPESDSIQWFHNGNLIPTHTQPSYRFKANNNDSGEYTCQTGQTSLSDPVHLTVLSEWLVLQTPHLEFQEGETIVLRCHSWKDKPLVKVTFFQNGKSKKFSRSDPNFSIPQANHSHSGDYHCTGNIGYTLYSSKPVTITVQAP
Procedure, shortened: as §1

[3] = target: T3, human FcRIIA protein (MednaBio, E1033) (human, UniProt P12318 34-218, limits assumed)
T3 construct: Bought; also called FcγRIIA
T3 sequence (looked up): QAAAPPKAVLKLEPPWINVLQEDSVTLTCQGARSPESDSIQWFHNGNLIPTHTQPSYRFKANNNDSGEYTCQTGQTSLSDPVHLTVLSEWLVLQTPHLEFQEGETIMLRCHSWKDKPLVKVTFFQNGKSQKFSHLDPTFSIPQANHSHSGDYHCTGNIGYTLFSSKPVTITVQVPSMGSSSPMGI
Procedure, shortened: as §1

[4] = target: T4, human FcRn protein (MednaBio, E1032) (human, UniProt P55899 24-297; P61769 21-119)
T4 construct: Bought; assays at pH 6
Procedure, shortened: as §1

[5] = target: T5, human FcRI protein (MednaBio, E1031) (human, UniProt P12314 16-288, limits assumed)
T5 construct: Bought; loaded on anti-penta-HIS biosensors; also called FcγRI
Procedure, shortened: as §1

[6] = target: T1, human FcRIIIA-V158 protein (MednaBio, …); remark: listed apart in the source
Procedure, shortened: as §1

[7] = target: T2, human FcRIIB/C protein (MednaBio, E1034); remark: listed apart in the source
Procedure, shortened: as §1

[8] = target: T3, human FcRIIA protein (MednaBio, E1033); remark: listed apart in the source
Procedure, shortened: as §1

[9] = target: T4, human FcRn protein (MednaBio, E1032); remark: listed apart in the source
Procedure, shortened: as §1

[10] = target: T6, human FcRIIIA-F158 protein (MednaBio, E1036) (human, UniProt P08637 17-208)
T6 construct: Bought; also called FcγRIIIA(F)

[11] = target: T7, human FcRIIIB protein (MednaBio, E1037) (human, UniProt O75015 17-200)
T7 construct: Bought; also called FcγRIIIB; FcgRIIIB

[12] = target: T1, human FcRIIIA-V158 protein (MednaBio, …); remark: listed apart in the source
Procedure, shortened: as §1

[13] = target: T6, human FcRIIIA-F158 protein (MednaBio, …); remark: listed apart in the source
Procedure, shortened: as §1

[14] = target: T7, human FcRIIIB protein (MednaBio, E1037); remark: listed apart in the source
Procedure, shortened: as §1

[15] = target: T6, human FcRIIIA-F158 protein (MednaBio, …); remark: listed apart in the source
[16] = target: T7, human FcRIIIB protein (MednaBio, E1037); remark: listed apart in the source

T7 sequence (O75015 17-200 limits assumed): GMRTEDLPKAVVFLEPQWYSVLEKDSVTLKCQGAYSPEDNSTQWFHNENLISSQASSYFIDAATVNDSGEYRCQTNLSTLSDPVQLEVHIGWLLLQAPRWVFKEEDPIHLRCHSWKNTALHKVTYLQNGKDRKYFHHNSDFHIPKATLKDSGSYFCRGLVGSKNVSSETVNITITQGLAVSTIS
T1 sequence (P08637 17-208 F176V): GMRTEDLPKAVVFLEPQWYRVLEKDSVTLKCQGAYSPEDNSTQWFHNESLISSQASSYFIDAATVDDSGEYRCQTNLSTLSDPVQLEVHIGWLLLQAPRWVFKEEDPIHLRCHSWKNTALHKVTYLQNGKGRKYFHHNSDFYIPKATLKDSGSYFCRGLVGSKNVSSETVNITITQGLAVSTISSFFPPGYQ
T6 sequence (P08637 17-208 limits assumed): as the sequence (P08637 17-208 F176V) above, with V160F counted along it
T5 sequence (P12314 16-288 limits assumed): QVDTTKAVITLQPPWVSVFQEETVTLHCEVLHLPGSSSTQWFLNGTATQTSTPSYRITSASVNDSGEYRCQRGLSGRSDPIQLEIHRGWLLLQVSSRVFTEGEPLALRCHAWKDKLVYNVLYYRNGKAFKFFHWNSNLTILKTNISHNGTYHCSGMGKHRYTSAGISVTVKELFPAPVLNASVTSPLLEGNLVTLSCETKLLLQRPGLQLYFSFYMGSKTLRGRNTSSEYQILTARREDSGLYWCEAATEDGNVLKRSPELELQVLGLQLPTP

Kd [1]: 60 nM | koff [1]: 0.027 s⁻¹ | kon [1]: 450000 M⁻¹ s⁻¹ | Kd [2]: 130 nM | koff [2]: 0.016 s⁻¹ | kon [2]: 120000 M⁻¹ s⁻¹ | Kd [3]: 56 nM | koff [3]: 0.032 s⁻¹ | kon [3]: 570000 M⁻¹ s⁻¹ | Kd [4]: 16 nM | koff [4]: 0.008 s⁻¹ | kon [4]: 480000 M⁻¹ s⁻¹ | Kd [5]: 5.6 nM | koff [5]: 0.0012 s⁻¹ | kon [5]: 220000 M⁻¹ s⁻¹ | Kd [6]: 60 nM | koff [6]: 0.027 s⁻¹ | kon [6]: 450000 M⁻¹ s⁻¹ | Kd [7]: 130 nM | koff [7]: 0.016 s⁻¹ | kon [7]: 120000 M⁻¹ s⁻¹ | Kd [8]: 56 nM | koff [8]: 0.032 s⁻¹ | kon [8]: 570000 M⁻¹ s⁻¹ | Kd [9]: 16 nM | koff [9]: 0.008 s⁻¹ | kon [9]: 480000 M⁻¹ s⁻¹ | Kd [10]: 120 nM | koff [10]: 0.02 s⁻¹ | kon [10]: 170000 M⁻¹ s⁻¹ | Kd [11]: 130 nM | koff [11]: 0.027 s⁻¹ | kon [11]: 210000 M⁻¹ s⁻¹ | Kd [12]: 60 nM | koff [12]: 0.027 s⁻¹ | kon [12]: 450000 M⁻¹ s⁻¹ | Kd [13]: 120 nM | koff [13]: 0.02 s⁻¹ | kon [13]: 170000 M⁻¹ s⁻¹ | Kd [14]: 130 nM | koff [14]: 0.027 s⁻¹ | kon [14]: 210000 M⁻¹ s⁻¹ | Kd [15]: 120 nM | koff [15]: 0.02 s⁻¹ | kon [15]: 170000 M⁻¹ s⁻¹ | Kd [16]: 130 nM | koff [16]: 0.027 s⁻¹ | kon [16]: 210000 M⁻¹ s⁻¹
B1: wild-type human IgG1 control (antibody)
heavy: not shown
light: SYELTQPPSVSVSPGQTASITCSGDNIGDQYAHWYQQKPGQSPVLVIYQDKNRPSGIPERFSGSNSGNTATLTISGTQAMDEADYYCATYTGFGSLAVFGGGTKLTVLGQPKAAPSVTLFPPSSEELQANKATLVCLISDFYPGAVTVAWKADSSPVKAGVETTTPSKQSNNKYAASSYLSLTPEQWKSHRSYSCQVTHEGSTVEKTVAPTECS
notes: Control IgG

Kd [1]: 550 nM | koff [1]: 0.092 s⁻¹ | kon [1]: 170000 M⁻¹ s⁻¹ | Kd [2]: 400 nM | koff [2]: 0.05 s⁻¹ | kon [2]: 140000 M⁻¹ s⁻¹ | Kd [3]: 400 nM | koff [3]: 0.055 s⁻¹ | kon [3]: 140000 M⁻¹ s⁻¹ | Kd [4]: 18 nM | koff [4]: 0.012 s⁻¹ | kon [4]: 640000 M⁻¹ s⁻¹ | Kd [5]: 4.8 nM | koff [5]: 0.0017 s⁻¹ | kon [5]: 360000 M⁻¹ s⁻¹ | Kd [6]: 550 nM | koff [6]: 0.092 s⁻¹ | kon [6]: 170000 M⁻¹ s⁻¹ | Kd [7]: 400 nM | koff [7]: 0.05 s⁻¹ | kon [7]: 140000 M⁻¹ s⁻¹ | Kd [8]: 400 nM | koff [8]: 0.055 s⁻¹ | kon [8]: 140000 M⁻¹ s⁻¹ | Kd [9]: 18 nM | koff [9]: 0.012 s⁻¹ | kon [9]: 640000 M⁻¹ s⁻¹
B2: wild-type human IgG4 control (antibody)
heavy: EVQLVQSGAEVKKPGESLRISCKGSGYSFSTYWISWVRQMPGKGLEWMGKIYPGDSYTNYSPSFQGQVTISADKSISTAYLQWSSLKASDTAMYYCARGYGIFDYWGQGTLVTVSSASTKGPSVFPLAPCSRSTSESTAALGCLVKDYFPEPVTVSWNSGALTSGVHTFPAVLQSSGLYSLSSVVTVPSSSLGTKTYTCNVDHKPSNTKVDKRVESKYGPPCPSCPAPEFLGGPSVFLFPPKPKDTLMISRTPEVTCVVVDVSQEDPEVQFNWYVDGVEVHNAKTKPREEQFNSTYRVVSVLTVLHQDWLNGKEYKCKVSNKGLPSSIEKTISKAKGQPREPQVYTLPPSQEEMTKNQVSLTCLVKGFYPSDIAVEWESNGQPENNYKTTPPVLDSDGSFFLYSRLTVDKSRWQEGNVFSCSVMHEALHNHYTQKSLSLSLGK
light: B1 light
notes: Control IgG
